T1: human TL1A extracellular domain with N-terminal HIS and FLAG tag (human, UniProt O95150 72-251)
T1 construct: the whole entry is named
T1 sequence: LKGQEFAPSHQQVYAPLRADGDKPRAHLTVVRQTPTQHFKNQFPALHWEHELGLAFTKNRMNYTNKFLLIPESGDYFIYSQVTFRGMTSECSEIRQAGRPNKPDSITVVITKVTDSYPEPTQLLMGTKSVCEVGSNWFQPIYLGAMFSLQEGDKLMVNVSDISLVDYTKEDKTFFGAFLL


Key:
[1] = biological target: T1, human TL1A extracellular domain with …; assay: SPR Run 5, Ab from supernatant captured on Protein A, TL1A 5 ug/mL, timepoint 220
From the text: (§1) 1.5. Antibody expression and antigen binding as determined by SPR. Using a CM5 sensor chip (GE Healthcare) Protein A (Pierce) was coupled to the chip surface using an amine coupling kit (GE Healthcare). Protein A was coupled on flow cell 1 and 2 (or alternatively 3 and 4) using a BIACORE® T200. […] The amount of supernatant or purified protein (as well as the concentration) injected during the capture stage varied between runs and is specified in the header of the Tables 3-11. At the end of injection of the supernatant or purified antibody the change in response units was measured. This value was reported as Capture Level in Tables 3-11. […] The response units were measured prior to the end of the dissociation phase. […] The sensorgrams were double referenced (flow cell 2 is subtracted from flow cell 1 and a buffer blank). As there were a large number of antibody variants to screen, these were screened across different runs (Tables 3-11). […] A summary of the conditions used in each run is below:
(§2) 2.1. […] In some experiment the antibodies were purified using Protein A chromatography (See 1.4) and purified antibodies were used in BIACORE® (GE Healthcare) experiments.

[2] = biological target: T1, human TL1A extracellular domain with …; assay: SPR Run 5, Ab from supernatant captured on Protein A, TL1A 5 ug/mL, timepoint 44
From the text: as §1, §2

| Binder | TL1A Binding Level (Late) [1] | TL1A Binding Level (Early) [2] |
| --- | --- | --- |
| 320-412 (antibody, human IgG1, name in Kabat numbering, V domains shown, human IgG1, lambda) VH: QVQLVQSGAEVKKPGASVKVSCKASGYYFTSYDINWVRQAPGQGLEWMGWLNPNSGNTGYAQKFQGRVTMTADRSTSTAYMELSSLRSEDTAVYYCAREVPETAAFEYWGQGTLVTVSS VL: QSVLTQPPSVSGAPGQRVTISCTSSSSDIGAGLGVHWYQQLPGTAPKLLIEGYYNRPSGVPDRFSGSKSGTSASLTITGLLPEDEGDYYCQSYDGTLSALFGGGTKLTVLG | 9 RU | 10 RU |
| 320-417 (antibody, human IgG1, name in Kabat numbering, V domains shown, human IgG1, lambda) VH: QVQLVQSGAEVKKPGASVKVSCKASGYTHTSYDINWVRQAPGQGLEWMGWLNPNSGNTGYAQKFQGRVTMTADRSTSTAYMELSSLRSEDTAVYYCAREVPETAAFEYWGQGTLVTVSS VL: QSVLTQPPSVSGAPGQRVTISCTSSSSDIGAGLGVHWYQQLPGTAPKLLIEGYYNRPSGVPDRFSGSKSGTSASLTITGLLPEDEGDYYCQSYDGTLSALFGGGTKLTVLG | 8 RU | 9 RU |
| 320-416 (antibody, human IgG1, name in Kabat numbering, V domains shown, human IgG1, lambda) VH: QVQLVQSGAEVKKPGASVKVSCKASGYTDTSYDINWVRQAPGQGLEWMGWLNPNSGNTGYAQKFQGRVTMTADRSTSTAYMELSSLRSEDTAVYYCAREVPETAAFEYWGQGTLVTVSS VL: QSVLTQPPSVSGAPGQRVTISCTSSSSDIGAGLGVHWYQQLPGTAPKLLIEGYYNRPSGVPDRFSGSKSGTSASLTITGLLPEDEGDYYCQSYDGTLSALFGGGTKLTVLG | 8 RU | 9 RU |
| 320-419 (antibody, human IgG1, name in Kabat numbering, V domains shown, human IgG1, lambda) VH: QVQLVQSGAEVKKPGASVKVSCKASGYTLTSYDINWVRQAPGQGLEWMGWLNPNSGNTGYAQKFQGRVTMTADRSTSTAYMELSSLRSEDTAVYYCAREVPETAAFEYWGQGTLVTVSS VL: QSVLTQPPSVSGAPGQRVTISCTSSSSDIGAGLGVHWYQQLPGTAPKLLIEGYYNRPSGVPDRFSGSKSGTSASLTITGLLPEDEGDYYCQSYDGTLSALFGGGTKLTVLG | 9 RU | 11 RU |
| 320-415 (antibody, human IgG1, name in Kabat numbering, V domains shown, human IgG1, lambda) VH: QVQLVQSGAEVKKPGASVKVSCKASGYTQTSYDINWVRQAPGQGLEWMGWLNPNSGNTGYAQKFQGRVTMTADRSTSTAYMELSSLRSEDTAVYYCAREVPETAAFEYWGQGTLVTVSS VL: QSVLTQPPSVSGAPGQRVTISCTSSSSDIGAGLGVHWYQQLPGTAPKLLIEGYYNRPSGVPDRFSGSKSGTSASLTITGLLPEDEGDYYCQSYDGTLSALFGGGTKLTVLG | 4 RU | 5 RU |
| 320-418 (antibody, human IgG1, name in Kabat numbering, V domains shown, human IgG1, lambda) VH: QVQLVQSGAEVKKPGASVKVSCKASGYTKTSYDINWVRQAPGQGLEWMGWLNPNSGNTGYAQKFQGRVTMTADRSTSTAYMELSSLRSEDTAVYYCAREVPETAAFEYWGQGTLVTVSS VL: QSVLTQPPSVSGAPGQRVTISCTSSSSDIGAGLGVHWYQQLPGTAPKLLIEGYYNRPSGVPDRFSGSKSGTSASLTITGLLPEDEGDYYCQSYDGTLSALFGGGTKLTVLG | 9 RU | 10 RU |
| 320-413 (antibody, human IgG1, name in Kabat numbering, V domains shown, human IgG1, lambda) VH: QVQLVQSGAEVKKPGASVKVSCKASGYTATSYDINWVRQAPGQGLEWMGWLNPNSGNTGYAQKFQGRVTMTADRSTSTAYMELSSLRSEDTAVYYCAREVPETAAFEYWGQGTLVTVSS VL: QSVLTQPPSVSGAPGQRVTISCTSSSSDIGAGLGVHWYQQLPGTAPKLLIEGYYNRPSGVPDRFSGSKSGTSASLTITGLLPEDEGDYYCQSYDGTLSALFGGGTKLTVLG | 8 RU | 9 RU |
| 320-414 (antibody, human IgG1, name in Kabat numbering, V domains shown, human IgG1, lambda) VH: QVQLVQSGAEVKKPGASVKVSCKASGYTSTSYDINWVRQAPGQGLEWMGWLNPNSGNTGYAQKFQGRVTMTADRSTSTAYMELSSLRSEDTAVYYCAREVPETAAFEYWGQGTLVTVSS VL: QSVLTQPPSVSGAPGQRVTISCTSSSSDIGAGLGVHWYQQLPGTAPKLLIEGYYNRPSGVPDRFSGSKSGTSASLTITGLLPEDEGDYYCQSYDGTLSALFGGGTKLTVLG | 7 RU | 7 RU |

Now from value to binder:

| TL1A Binding Level (Late) [1] | TL1A Binding Level (Early) [2] | Binder |
| --- | --- | --- |
| 10 RU | 11 RU | 320-424 (antibody, human IgG1, name in Kabat numbering, V domains shown, human IgG1, lambda) VH: QVQLVQSGAEVKKPGASVKVSCKASGYTFQSYDINWVRQAPGQGLEWMGWLNPNSGNTGYAQKFQGRVTMTADRSTSTAYMELSSLRSEDTAVYYCAREVPETAAFEYWGQGTLVTVSS VL: QSVLTQPPSVSGAPGQRVTISCTSSSSDIGAGLGVHWYQQLPGTAPKLLIEGYYNRPSGVPDRFSGSKSGTSASLTITGLLPEDEGDYYCQSYDGTLSALFGGGTKLTVLG |
| 12 RU | 14 RU | 320-425 (antibody, human IgG1, name in Kabat numbering, V domains shown, human IgG1, lambda) VH: QVQLVQSGAEVKKPGASVKVSCKASGYTFDSYDINWVRQAPGQGLEWMGWLNPNSGNTGYAQKFQGRVTMTADRSTSTAYMELSSLRSEDTAVYYCAREVPETAAFEYWGQGTLVTVSS VL: QSVLTQPPSVSGAPGQRVTISCTSSSSDIGAGLGVHWYQQLPGTAPKLLIEGYYNRPSGVPDRFSGSKSGTSASLTITGLLPEDEGDYYCQSYDGTLSALFGGGTKLTVLG |
| 9 RU | 10 RU | 320-422 (antibody, human IgG1, name in Kabat numbering, V domains shown, human IgG1, lambda) VH: QVQLVQSGAEVKKPGASVKVSCKASGYTFASYDINWVRQAPGQGLEWMGWLNPNSGNTGYAQKFQGRVTMTADRSTSTAYMELSSLRSEDTAVYYCAREVPETAAFEYWGQGTLVTVSS VL: QSVLTQPPSVSGAPGQRVTISCTSSSSDIGAGLGVHWYQQLPGTAPKLLIEGYYNRPSGVPDRFSGSKSGTSASLTITGLLPEDEGDYYCQSYDGTLSALFGGGTKLTVLG |
| 10 RU | 11 RU | 320-427 (antibody, human IgG1, name in Kabat numbering, V domains shown, human IgG1, lambda) VH: QVQLVQSGAEVKKPGASVKVSCKASGYTFKSYDINWVRQAPGQGLEWMGWLNPNSGNTGYAQKFQGRVTMTADRSTSTAYMELSSLRSEDTAVYYCAREVPETAAFEYWGQGTLVTVSS VL: QSVLTQPPSVSGAPGQRVTISCTSSSSDIGAGLGVHWYQQLPGTAPKLLIEGYYNRPSGVPDRFSGSKSGTSASLTITGLLPEDEGDYYCQSYDGTLSALFGGGTKLTVLG |
| 10 RU | 10 RU | 320-423 (antibody, human IgG1, name in Kabat numbering, V domains shown, human IgG1, lambda) VH: QVQLVQSGAEVKKPGASVKVSCKASGYTFSSYDINWVRQAPGQGLEWMGWLNPNSGNTGYAQKFQGRVTMTADRSTSTAYMELSSLRSEDTAVYYCAREVPETAAFEYWGQGTLVTVSS VL: QSVLTQPPSVSGAPGQRVTISCTSSSSDIGAGLGVHWYQQLPGTAPKLLIEGYYNRPSGVPDRFSGSKSGTSASLTITGLLPEDEGDYYCQSYDGTLSALFGGGTKLTVLG |
| 9 RU | 10 RU | 320-426 (antibody, human IgG1, name in Kabat numbering, V domains shown, human IgG1, lambda) VH: QVQLVQSGAEVKKPGASVKVSCKASGYTFHSYDINWVRQAPGQGLEWMGWLNPNSGNTGYAQKFQGRVTMTADRSTSTAYMELSSLRSEDTAVYYCAREVPETAAFEYWGQGTLVTVSS VL: QSVLTQPPSVSGAPGQRVTISCTSSSSDIGAGLGVHWYQQLPGTAPKLLIEGYYNRPSGVPDRFSGSKSGTSASLTITGLLPEDEGDYYCQSYDGTLSALFGGGTKLTVLG |
| 10 RU | 11 RU | 320-428 (antibody, human IgG1, name in Kabat numbering, V domains shown, human IgG1, lambda) VH: QVQLVQSGAEVKKPGASVKVSCKASGYTFLSYDINWVRQAPGQGLEWMGWLNPNSGNTGYAQKFQGRVTMTADRSTSTAYMELSSLRSEDTAVYYCAREVPETAAFEYWGQGTLVTVSS VL: QSVLTQPPSVSGAPGQRVTISCTSSSSDIGAGLGVHWYQQLPGTAPKLLIEGYYNRPSGVPDRFSGSKSGTSASLTITGLLPEDEGDYYCQSYDGTLSALFGGGTKLTVLG |
| 11 RU | 12 RU | 320-429 (antibody, human IgG1, name in Kabat numbering, V domains shown, human IgG1, lambda) VH: QVQLVQSGAEVKKPGASVKVSCKASGYTFWSYDINWVRQAPGQGLEWMGWLNPNSGNTGYAQKFQGRVTMTADRSTSTAYMELSSLRSEDTAVYYCAREVPETAAFEYWGQGTLVTVSS VL: QSVLTQPPSVSGAPGQRVTISCTSSSSDIGAGLGVHWYQQLPGTAPKLLIEGYYNRPSGVPDRFSGSKSGTSASLTITGLLPEDEGDYYCQSYDGTLSALFGGGTKLTVLG |
| 10 RU | 11 RU | 320-420 (antibody, human IgG1, name in Kabat numbering, V domains shown, human IgG1, lambda) VH: QVQLVQSGAEVKKPGASVKVSCKASGYTWTSYDINWVRQAPGQGLEWMGWLNPNSGNTGYAQKFQGRVTMTADRSTSTAYMELSSLRSEDTAVYYCAREVPETAAFEYWGQGTLVTVSS VL: QSVLTQPPSVSGAPGQRVTISCTSSSSDIGAGLGVHWYQQLPGTAPKLLIEGYYNRPSGVPDRFSGSKSGTSASLTITGLLPEDEGDYYCQSYDGTLSALFGGGTKLTVLG |

Source: patent US20170081400A1 (CEPHALON, published 2017)
